{"source": "patent US20170342349A1", "about": "“STABILIZED ENZYME COMPOSITIONS” (NOVOZYMES A/S, priority 2014, published 2017)", "key": {"[1]": {"molecular_target": "Protease C (SEQ ID NO 6) variant L134V (Lederbergia lenta (Bacillus lentus)) (UniProt P29600)", "assay": "Ki fitted from Suc-AAPF-pNA activity in Model B detergent; IF relative to SEQ ID NO 6"}, "[2]": {"molecular_target": "Protease C (SEQ ID NO 6) variant S100I + L134V (Lederbergia lenta (Bacillus lentus)) (UniProt P29600)", "assay": "Ki fitted from Suc-AAPF-pNA activity in Model B detergent; IF relative to SEQ ID NO 6"}, "[3]": {"molecular_target": "Protease C (SEQ ID NO 6) variant V103A (Lederbergia lenta (Bacillus lentus)) (UniProt P29600)", "assay": "Ki fitted from Suc-AAPF-pNA activity in Model B detergent; IF relative to SEQ ID NO 6"}, "[4]": {"molecular_target": "Protease C (SEQ ID NO 6) variant N60F + S100I (Lederbergia lenta (Bacillus lentus)) (UniProt P29600)", "assay": "Ki fitted from Suc-AAPF-pNA activity in Model B detergent; IF relative to SEQ ID NO 6"}, "[5]": {"molecular_target": "Protease C (SEQ ID NO 6) variant S100I + Y166F (Lederbergia lenta (Bacillus lentus)) (UniProt P29600)", "assay": "Ki fitted from Suc-AAPF-pNA activity in Model B detergent; IF relative to SEQ ID NO 6"}, "[6]": {"molecular_target": "Protease C (SEQ ID NO 6) variant N60H (Lederbergia lenta (Bacillus lentus)) (UniProt P29600)", "assay": "Ki fitted from Suc-AAPF-pNA activity in Model B detergent; IF relative to SEQ ID NO 6"}, "[7]": {"molecular_target": "TY145 (SEQ ID NO 3) variant S173P + S175P + F180Y + L184H", "assay": "Ki fitted from Suc-AAPF-pNA activity in Model B detergent; IF relative to SEQ ID NO 3 comprising S173P + S175P + F180Y"}, "[8]": {"molecular_target": "TY145 (SEQ ID NO 3) variant S173P + S175P + F180Y + L184F", "assay": "Ki fitted from Suc-AAPF-pNA activity in Model B detergent; IF relative to SEQ ID NO 3 comprising S173P + S175P + F180Y"}, "[9]": {"molecular_target": "TY145 (SEQ ID NO 3) variant I150T + S173P + S175P + F180Y", "sequence (chain, as listed by the source I150T S173P S175P F180Y I150T S173P S175P F180Y limits assumed)": "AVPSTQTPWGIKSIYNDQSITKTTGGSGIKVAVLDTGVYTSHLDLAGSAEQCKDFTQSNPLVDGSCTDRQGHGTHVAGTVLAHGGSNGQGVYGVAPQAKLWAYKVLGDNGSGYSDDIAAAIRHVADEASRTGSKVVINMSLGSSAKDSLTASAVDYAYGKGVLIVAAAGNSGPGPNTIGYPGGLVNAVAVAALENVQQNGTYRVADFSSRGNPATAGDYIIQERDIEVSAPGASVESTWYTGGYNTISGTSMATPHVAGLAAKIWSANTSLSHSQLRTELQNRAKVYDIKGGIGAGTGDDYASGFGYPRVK", "assay": "Ki fitted from Suc-AAPF-pNA activity in Model B detergent; IF relative to SEQ ID NO 3 comprising S173P + S175P + F180Y"}, "[10]": {"molecular_target": "TY145 (SEQ ID NO 3) variant I150A + S173P + S175P + F180Y", "assay": "Ki fitted from Suc-AAPF-pNA activity in Model B detergent; IF relative to SEQ ID NO 3 comprising S173P + S175P + F180Y"}, "[11]": {"molecular_target": "TY145 (SEQ ID NO 3) variant K146W + S173P + S175P + F180Y", "assay": "Ki fitted from Suc-AAPF-pNA activity in Model B detergent; IF relative to SEQ ID NO 3 comprising S173P + S175P + F180Y"}, "[12]": {"molecular_target": "TY145 (SEQ ID NO 3) variant K146R + S173P + S175P + F180Y", "assay": "Ki fitted from Suc-AAPF-pNA activity in Model B detergent; IF relative to SEQ ID NO 3 comprising S173P + S175P + F180Y"}, "[13]": {"molecular_target": "TY145 (SEQ ID NO 3) variant Q70Y + S173P + S175P + F180Y", "sequence (chain, as listed by the source Q70Y S173P S175P F180Y Q70Y S173P S175P F180Y limits assumed)": "as the sequence (chain, as listed by the source I150T S173P S175P F180Y I150T S173P S175P F180Y limits assumed) above, with Q70Y, T150I counted along it", "assay": "Ki fitted from Suc-AAPF-pNA activity in Model B detergent; IF relative to SEQ ID NO 3 comprising S173P + S175P + F180Y"}, "[14]": {"molecular_target": "TY145 (SEQ ID NO 3) variant K146S + S173P + S175P + F180Y", "assay": "Ki fitted from Suc-AAPF-pNA activity in Model B detergent; IF relative to SEQ ID NO 3 comprising S173P + S175P + F180Y"}, "[15]": {"molecular_target": "TY145 (SEQ ID NO 3) variant S173P + S175P + F180Y + L184Y", "assay": "Ki fitted from Suc-AAPF-pNA activity in Model B detergent; IF relative to SEQ ID NO 3 comprising S173P + S175P + F180Y"}, "[16]": {"molecular_target": "TY145 (SEQ ID NO 3) variant S173P + S175P + F180Y + L184W", "assay": "Ki fitted from Suc-AAPF-pNA activity in Model B detergent; IF relative to SEQ ID NO 3 comprising S173P + S175P + F180Y"}, "[17]": {"molecular_target": "TY145 (SEQ ID NO 3) variant Q70F + S173P + S175P + F180Y", "sequence (chain, as listed by the source Q70F S173P S175P F180Y Q70F S173P S175P F180Y limits assumed)": "as the sequence (chain, as listed by the source I150T S173P S175P F180Y I150T S173P S175P F180Y limits assumed) above, with Q70F, T150I counted along it", "assay": "Ki fitted from Suc-AAPF-pNA activity in Model B detergent; IF relative to SEQ ID NO 3 comprising S173P + S175P + F180Y"}, "[18]": {"molecular_target": "TY145 (SEQ ID NO 3) variant Q70A + S173P + S175P + F180Y", "assay": "Ki fitted from Suc-AAPF-pNA activity in Model B detergent; IF relative to SEQ ID NO 3 comprising S173P + S175P + F180Y"}, "[19]": {"molecular_target": "TY145 (SEQ ID NO 3) variant S173P + S175P + F180Y + G182A", "assay": "Ki fitted from Suc-AAPF-pNA activity in Model B detergent; IF relative to SEQ ID NO 3 comprising S173P + S175P + F180Y"}, "[20]": {"molecular_target": "TY145 (SEQ ID NO 3) variant K146T + S173P + S175P + F180Y", "assay": "Ki fitted from Suc-AAPF-pNA activity in Model B detergent; IF relative to SEQ ID NO 3 comprising S173P + S175P + F180Y"}, "[21]": {"molecular_target": "TY145 (SEQ ID NO 3) variant Q70H + S173P + S175P + F180Y", "sequence (chain, as listed by the source Q70H S173P S175P F180Y Q70H S173P S175P F180Y limits assumed)": "as the sequence (chain, as listed by the source I150T S173P S175P F180Y I150T S173P S175P F180Y limits assumed) above, with Q70H, T150I counted along it", "assay": "Ki fitted from Suc-AAPF-pNA activity in Model B detergent; IF relative to SEQ ID NO 3 comprising S173P + S175P + F180Y"}, "[22]": {"molecular_target": "TY145 (SEQ ID NO 3) variant S111I + S173P + S175P + F180Y", "assay": "Ki fitted from Suc-AAPF-pNA activity in Model B detergent; IF relative to SEQ ID NO 3 comprising S173P + S175P + F180Y"}}}
{"substance": "Inhibitor 1: Cbz-Gly-Ala-NHCH(CH2C6H4pOH)C(OH)(SO3Na)-H (peptide)", "values": [{"measurement": "IF (binding constant improvement factor, relative Ki)", "setting": "[1]", "result": 2.89}, {"measurement": "IF (binding constant improvement factor, relative Ki)", "setting": "[2]", "result": 15.1}, {"measurement": "IF (binding constant improvement factor, relative Ki)", "setting": "[3]", "result": 1.49}, {"measurement": "IF (binding constant improvement factor, relative Ki)", "setting": "[4]", "result": 11.3}, {"measurement": "IF (binding constant improvement factor, relative Ki)", "setting": "[5]", "result": 11.3}, {"measurement": "IF (binding constant improvement factor, relative Ki)", "setting": "[6]", "result": 1.24}, {"measurement": "IF (binding constant improvement factor, relative Ki)", "setting": "[7]", "result": 2.5}, {"measurement": "IF (binding constant improvement factor, relative Ki)", "setting": "[8]", "result": 4.28}, {"measurement": "IF (binding constant improvement factor, relative Ki)", "setting": "[9]", "result": 4.15}, {"measurement": "IF (binding constant improvement factor, relative Ki)", "setting": "[10]", "result": 2.52}, {"measurement": "IF (binding constant improvement factor, relative Ki)", "setting": "[11]", "result": 5.47}, {"measurement": "IF (binding constant improvement factor, relative Ki)", "setting": "[12]", "result": 1.31}, {"measurement": "IF (binding constant improvement factor, relative Ki)", "setting": "[13]", "result": 7.44}, {"measurement": "IF (binding constant improvement factor, relative Ki)", "setting": "[14]", "result": 1.13}, {"measurement": "IF (binding constant improvement factor, relative Ki)", "setting": "[15]", "result": 3.91}, {"measurement": "IF (binding constant improvement factor, relative Ki)", "setting": "[16]", "result": 2.23}, {"measurement": "IF (binding constant improvement factor, relative Ki)", "setting": "[17]", "result": 11.8}, {"measurement": "IF (binding constant improvement factor, relative Ki)", "setting": "[18]", "result": 4.13}, {"measurement": "IF (binding constant improvement factor, relative Ki)", "setting": "[19]", "result": 2.49}, {"measurement": "IF (binding constant improvement factor, relative Ki)", "setting": "[20]", "result": 15.9}, {"measurement": "IF (binding constant improvement factor, relative Ki)", "setting": "[21]", "result": 3.78}, {"measurement": "IF (binding constant improvement factor, relative Ki)", "setting": "[22]", "result": 1.12}]}
